As a reminder, the Km is the concentration of substrate that gives half-maximal velocity.

Consider seven molecules from US10781456B2, “Carbon-neutral and carbon-positive photorespiration bypass routes supporting higher photosynthetic rate and yield” (Max-Planck-Gesellschaft zur Förderung der Wissenschaften …, priority 2015, dated 2020).

Data set [1] has as its target D-fructose 6-phosphate aldolase encoded by E. coli gene fsaB (UniProt P32669). Conditions: cited from earlier work.
In data set [2] the target is D-fructose 6-phosphate aldolase encoded by E. coli gene fsaA (UniProt P78055). To be noted: cited from earlier work.
Substrate in data set [3]: CC(C)(COP(=O)(O)OP(=O)(O)OC[C@H]1O[C@@H](n2cnc3c(N)ncnc32)[C@H](O)[C@@H]1OP(=O)(O)O)[C@@H](O)C(=O)NCCC(=O)NCCSC(=O)C(O)C(=O)O
Briefly: MCRCa activity for conversion of tartronyl-CoA into glycerate (reactions 4# and 5), NADPH oxidation. It is filed as biochemical, Chloroflexus aurantiacus. Conditions: pH 7.5, 0.4 mM NADPH. As to the method: For the heterologous expression of the MCRCa protein (amino acid sequence is shown in SEQ ID NO: 8; corresponding nucleic acid sequence encoding the protein is depicted in SEQ ID NO: 7) the previously described pTRC-MCRCa plasmid (Kröger et al., 2011, Analytical biochemistry, 411(1), 100-105) was employed.
Cells were harvested at 10 000×g for 10 min and cell pellets were stored at −80° C. until purification of enzymes. Cell pellets of MCRCa and MCRE overexpressing cells were resuspended in two-fold volume of buffer AStrep (50 mM Tris/HCl, 150 mM NaCl, pH 7.8) containing 0.1 mg mL^−1 DNAse I. The cell suspension was passed through a French pressure cell twice at a pressure of 137 MPa and centrifuged at 100 000×g and 4° C. for 1 h. The supernatant was filtered through a 0.45 μm syringe filter and loaded at a flow rate of 1 mL min^−1 onto a 1 mL StrepTrap™ HP column (GE healthcare) which had previously been equilibrated with 5 column volumes of buffer AStrep. The column was washed with 20 column volumes of buffer AStrep and the protein was eluted with buffer AStrep containing 3 mM desthiobiotin. The enzyme was stored in buffer AStrep containing 20% glycerol.
(§1) The kinetics of the MCRCa enzyme for enzymatically converting the substrate tartonyl-CoA into glycerate (via reactions 4# and 5 both catalyzed by MCRCa) were determined spectrophotometrically at 365 nm following the oxidation of NADPH. Per molecule tartronyl-CoA, two molecules of NADPH are oxidized by MCRCa (a first in reaction 4# and a second in reaction 5) The measurements were carried out at 37° C. in a total reaction volume of 200 μL containing 100 mM MOPS buffer (with 5 mM MgCl2, pH 7.5) with an initial NADPH concentration of 0.4 mM NADPH and 23 μg MCRCa.

Substrate in data set [4]: CC(C)(COP(=O)(O)OP(=O)(O)OC[C@H]1O[C@@H](n2cnc3c(N)ncnc32)[C@H](O)[C@@H]1OP(=O)(O)O)[C@@H](O)C(=O)NCCC(=O)NCCSC(=O)CO
Kind of data set: PCCMe_D407I_Y143H activity for conversion of glycolyl-CoA into tartronyl-CoA (reaction 3#), coupled ATP hydrolysis (PK/LDH) assay. It is filed as biochemical, Methylobacterium extorquens. Conditions: other: 37° C., pH 7.7, ATP hydrolysis assay, 0.125-3 mM glycolyl-CoA, n=2.

The subject of a further data set is tartronyl-CoA. Briefly: malonyl-CoA reductase spectrophotometric assay, NADPH oxidation at 365 nm, tartronyl-CoA into glycerate (reactions 4# and 5). It is filed as biochemical. To be noted: 0.25 mM tartronyl-CoA. On the procedure: as §1
(§2) An alternative enzyme for catalyzing the conversion of tartonyl-CoA into glycerate (via reactions 4# and 5) is the MCR from Erythrobacter sp. NAP1 (MCRE). It was tested for its activity with malonyl-CoA and for tartronyl-CoA with the assay described above for MCRCa.

The test system of a further data set is malonyl-CoA. Kind of data set: malonyl-CoA reductase activity with physiological substrate malonyl-CoA. It is filed as biochemical. On the procedure: as §1
(0.3 mM substrate, Kröger et al. 2011, loc. cit.). With tartronyl-CoA (0.25 mM), the specific activity at 37° C. was 0.6 U mg^−1.
as §2

[5] abbreviates: as a substrate, read-out: KM for dihydroxyacetone phosphate.
The mark [6] stands for this setting: as a substrate, read-out: KM for D-fructose 6-phosphate.
[7] abbreviates: bound stated for both fsaA and fsaB enzymes, read-out: KM (condensation of glycolaldehyde as donor with D-glyceraldehyde 3-phosphate as acceptor).
The mark [8] stands for this setting: other: 37° C., n=3, nonlinear regression.
Where [9] appears, read: other: FIG. 8D and Table 5, 37° C., n=3.

Read-outs that look alike come from different tables or passages of the source.

`O=C(CO)COP(=O)(O)O` [dihydroxyacetone phosphate]: the Km in data set [1] (setting [5]) and in data set [2] (setting [5]) was greater than 25000 µM in each case.

As for `O=P(O)(O)OC[C@H]1OC(O)(CO)[C@@H](O)[C@@H]1O` (stereo partly drawn) [D-fructose 6-phosphate], the Km in data set [1] (setting [6]) and in data set [2] (setting [6]) was greater than 6000 µM throughout.

For the molecule `O=P(O)(O)OC[C@H]1OC(O)[C@@H](O)[C@@H]1O` (stereo partly drawn) [D-arabinose 5-phosphate], in data set [2] (read-out: KM for D-arabinose 5-phosphate), the Km was roughly 500 µM.

Turning to `O=C[C@H](O)COP(=O)(O)O` [D-glyceraldehyde 3-phosphate], the Michaelis-Menten constant (Km) in data set [1] (setting [7]) and in data set [2] (setting [7]) was less than 1000 µM in each case.

B1: malonyl-CoA reductase from Chloroflexus aurantiacus (MCRCa), SEQ ID NO: 8 (Chloroflexus aurantiacus) (protein)
chain: MSGTGRLAGKIALITGGAGNIGSELTRRFLAEGATVIISGRNRAKLTALAERMQAEAGVPAKRIDLEVMDGSDPVAVRAGIEAIVARHGQIDILVNNAGSAGAQRRLAEIPLTEAELGPGAEETLHASIANLLGMGWHLMRIAAPHMPVGSAVINVSTIFSRAEYYGRIPYVTPKAALNALSQLAARELGARGIRVNTIFPGPIESDRIRTVFQRMDQLKGRPEGDTAHHFLNTMRLCRANDQGALERRFPSVGDVADAAVFLASAESAALSGETIEVTHGMELPACSETSLLARTDLRTIDASGRTTLICAGDQIEEVMALTGMLRTCGSEVIIGFRSAAALAQFEQAVNESRRLAGADFTPPIALPLDPRDPATIDAVFDWGAGENTGGIHAAVILPATSHEPAPCVIEVDDERVLNFLADEITGTIVIASRLARYWQSQRLTPGARARGPRVIFLSNGADQNGNVYGRIQSAAIGQLIRVWRHEAELDYQRASAAGDHVLPPVWANQIVRFANRSLEGLEFACAWTAQLLHSQRHINEITLNIPANISATTGARSASVGWAESLIGLHLGKVALITGGSAGIGGQIGRLLALSGARVMLAARDRHKLEQMQAMIQSELAEVGYTDVEDRVHIAPGCDVSSEAQLADLVERTLSAFGTVDYLINNAGIAGVEEMVIDMPVEGWRHTLFANLISNYSLMRKLAPLMKKQGSGYILNVSSYFGGEKDAAIPYPNRADYAVSKAGQRAMAEVFARFLGPEIQINAIAPGPVEGDRLRGTGERPGLFARRARLILENKRLNELHAALIAAARTDERSMHELVELLLPNDVAALEQNPAAPTALRELARRFRSEGDPAASSSSALLNRSIAAKLLARLHNGGYVLPADIFANLPNPPDPFFTRAQIDREARKVRDGIMGMLYLQRMPTEFDVAMATVYYLADRNVSGETFHPSGGLRYERTPTGGELFGLPSPERLAELVGSTVYLIGEHLTEHLNLLARAYLERYGARQVVMIVETETGAETMRRLLHDHVEAGRLMTIVAGDQIEAAIDQAITRYGRPGPVVCTPFRPLPTVPLVGRKDSDWSTVLSEAEFAELCEHQLTHHFRVARKIALSDGASLALVTPETTATSTTEQFALANFIKTTLHAFTATIGVESERTAQRILINQVDLTRRARAEEPRDPHERQQELERFIEAVLLVTAPLPPEADTRYAGRIHRGRAITV
Regarding B1, in data set [3] (setting [8]), the Km was 25.7 ± 2.6 µM and the Vmax is 635±14 mU/mg. Besides, in data set [3] (setting [9]), the Michaelis-Menten constant (Km) is 0.03 ± 0.003 mM (tartronyl-CoA) mM and the Vmax turned out to be 0.6 ± 0.01 U mg^−1.

B2: propionyl-CoA carboxylase from Methylobacterium extorquens (PCCMe) variant PCCMe_D407I_Y143H (pccA SEQ ID NO: 2; pccB_D407I_Y143H SEQ ID NO: 6) (Methylorubrum … (protein)
chain 1: MKDILEKLEERRAQARLGGGEKRLEAQHKRGKLTARERIELLLDHGSFEEFDMFVQHRSTDFGMEKQKIPGDGVVTGWGTVNGRTVFLFSKDFTVFGGSLSEAHAAKIVKVQDMALKMRAPIIGIFDAGGARIQEGVAALGGHGEVFRRNVAASGVIPQISVIMGPCAGGDVYSPAMTDFIFMVRDTSYMFVTGPDVVKTVTNEVVTAEELGGAKVHTSKSSIADGSFENDVEAILQIRRLLDFLPANNIEGVPEIESFDDVNRLDKSLDTLIPDNPNKPYDMGELIRRVVDEGDFFEIQAAYARNIITGFGRVEGRTVGFVANQPLVLAGVLDSDASRKAARFVRFCNAFSIPIVTFVDVPGFLPGTAQEYGGLIKHGAKLLFAYSQATVPLVTIITRKAFGGAYIVMASKHVGADLNYAWPTAQIAVMGAKGAVEIIFRAEIGDADKIAERTKEYEDRFLSPFVAAERGYIDEVIMPHSTRKRIARALGMLRTKEMEQPWKKHDNIPL
chain 2: MFDKILIANRGEIACRIIKTAQKMGIKTVAVYSDADRDAVHVAMADEAVHIGPAPAAQSYLLIEKIIDACKQTGAQAVHPGYGFLSERESFPKALAEAGIVFIGPNPGAIAAMGDKIESKKAAAAAEVSTVPGFLGVIESPEHAVTIADEIGYPVMIKASAGGGGKGMRIAESADEVAEGFARAKSEASSSFGDDRVFVEKFITDPRHIEIQVIGDKHGNVIYLGERECSIQRRNQKVIEEAPSPLLDEETRRKMGEQAVALAKAVNYDSAGTVEFVAGQDKSFYFLEMNTRLQVEHPVTEMITGLDLVELMIRVAAGEKLPLSQDQVKLDGWAVESRVYAEDPTRNFLPSIGRLTTYQPPEEGPLGGAIVRNDTGVEEGGEIAIHYDPMIAKLVTWAPTRLEAIEAQATALDAFAIEGIRHNIPFLATLMAHPRWRDGRLSTGFIKEEFPEGFIAPEPEGPVAHRLAAVAAAIDHKLNIRKRGISGQMRDPSLLTFQRERVVVLSGQRFNVTVDPDGDDLLVTFDDGTTAPVRSAWRPGAPVWSGTVGDQSVAIQVRPLLNGVFLQHAGAAAEARVFTRREAELADLMPVKENAGSGKQLLCPMPGLVKQIMVSEGQEVKNGEPLAIVEAMKMENVLRAERDGTISKIAAKEGDSLAVDAVILEFA
As to B2, in data set [4], the Km is recorded as 1.0 ± 0.15 mM (glycolyl-CoA) mM and the Vmax was found to be 1.5 ± 0.09 U mg^−1.

B3: MCRE: malonyl-CoA reductase of Erythrobacter sp. NAP1, NCBI accession no. WP_007163680.1, SEQ ID NO: 10 (protein, listed as Erythrobacter sp.)
chain: MSKEGNAAKGRLEGKVALITGAAGNLGNEISRAFAREGAFVVMTGRTEERISAAREQLIADTGVAPERIDTAVLDGGNPDSIRAAMAKLRKEYGRIDILINNAGSAGPKQPLHNVPLSPQEMEACGDTETVRDAMLNILGVTWNMARIVAPMMPVGGAMVNISTIFSHTRYYGRTAYVVPKAALNALSNQLASELGPRGIRVNTVFPGPIESDRIRTVFAAMDEVQSQPKDTTANYFTGRMALTRSVNGKVDGKPLPNPKDIAGTCLFLASEEAAGIAGEEVDVTHGLSANRTSASTYMTRPSMRSLDGAGLNIFIVSGENWDDALVAAHTLIGSGAKVRLGLARNADVAQANARLKAQGIGEELTVTRFNRAEPDAMEDALAAFSGDVDGAITGAIILPVKPSGHFTGSLLAADDDTVTKFMDTELVGAIAVSRSLARYWHGREDLQSPPRCVFMTNPGDPLGNSFASVLSAGITQLIRIWRDEERVQAGNGSTEHAVWSNQIVRHTNTEDENTRFASGHATRVLFREQHIAEIDLKLPANISEETGSRKAMVGFAENITGLHLGKVAFITGGSAGIGGQVARLLALAGAKVMMVARRESELVAARDRIVGELQDIGFAGVERRVKYMADIDVSDFASLDKAVDATLEEFGRIDYLINNAGVAGAEDMVIDMEPEAWRFTLDANLISNYHLMQRVVPLMKEQGSGYVLNVSSYFGGEKFLAVAYPNRADYGLSKAGQRAMVEAFSPFLGPEVQCNAIAPGPVDGDRLSGTGGKPGLFQRRAKLILENKRLNAVYSAVIHAIREGGDAAKILTRLSRNSTSTLSHDAEAPEELRKLALDFASQGDGLCTWDQYLLTDAMAQRLLVRLQLGGFLLGSNEWASLSSSEQTWLKLSPPDDKPFLPAAQVDKVANGVGKGVISQLHLGAMPTEAEVAQATVFFLADRAVSGETFMPSGGLRVERSNTEREMFGSPKQERIDKMKGKTVWIIGEHLSDYVAATIEELVSGCGVAKVVLIAKDKSGEKAVRDQLPNDLSKDALEVLIAGDGLEEAMDEALGHWGKPTTVLSMPGEPLPDHLFEGGNPLSTKDFAHMVEANITRHYRVTRKASLYDGCQVVLVSPDVPYGSDGPGVALANFVKTSLHAFTATVAVENERLVHDVPVNQINLTRRVSSEEPRDADEHAEELRRFTRAVLLVGAPLPDAQDSRYRSKIYRGTSMTV
modifications: [CDS]1..3654 from SEQ ID NO 9
Take B3: the “specific activity for tartronyl-CoA, times lower than that of MCRCa” value with tartronyl-CoA is on record as 6 times. Also, the “specific activity with tartronyl-CoA” value with tartronyl-CoA (37° C.) is given as 0.1 U mg^−1. Further, the “specific activity for malonyl-CoA, times lower than MCRCa” value in the data set with malonyl-CoA was 100 times. Besides, the “specific activity with malonyl-CoA” value in the data set with malonyl-CoA (0.25 mM malonyl-CoA) is recorded as 0.1 U mg^−1.
